According to patent US20110158992A1 (SCHERING, published 2011):
Numbering of substitutions follows the chain as printed. In names and notes the source's numbering stands.

T1: human IL-23R (human, UniProt Q5VWK5 24-353, limits assumed)
T1 construct: also called huIL-23R; human interleukin-23R
T1 sequence: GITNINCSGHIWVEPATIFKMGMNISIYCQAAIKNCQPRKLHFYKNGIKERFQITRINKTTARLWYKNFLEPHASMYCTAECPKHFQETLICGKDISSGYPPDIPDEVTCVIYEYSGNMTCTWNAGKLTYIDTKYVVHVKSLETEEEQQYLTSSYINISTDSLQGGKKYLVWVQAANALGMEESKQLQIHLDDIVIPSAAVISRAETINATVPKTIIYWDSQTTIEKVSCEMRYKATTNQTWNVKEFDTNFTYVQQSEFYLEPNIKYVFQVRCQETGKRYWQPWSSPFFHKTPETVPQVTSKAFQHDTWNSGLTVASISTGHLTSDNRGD

T2: biotinylated huIL-23R-IgG (human, UniProt Q5VWK5 24-353, biotinylated)
T2 construct: not shown: human IgG1 Fc
T2 sequence: T1 sequence

B1: humanized anti-human IL-23R antibody hu8B10-b (antibody, V domains shown)
VH: QVQLVESGGGVVQPGRSLRLSCAASGFDFNSYGMSWVRQAPGKGLDLVADINSKSYNYATYYADSVKDRFTISRDNSKNTLYLQMNSLRAEDTAVYYCAVHHSDYFEYWGQGTLVTVSS
VL: DIQMTQSPSSLSASVGDRVTITCRASQDIYTNLAWYQQKPGKAPKLLIYHASSLQDGVPSRFSGSGSGTDYTLTISSLQPEDFATYYCLQDSEYPPTFGQGTKVEIKR
B2: hu8B10-b variant, VH N52D (antibody, V domains shown)
VH: B1 VH with N52D
VL: B1 VL
notes: also called VH: 8B10-b N52D / VL: 8B10-b
B3: hu8B10-b variant, VH N57D (antibody, V domains shown)
VH: B1 VH with N57D
VL: B1 VL
notes: also called VH: 8B10-b N57D / VL: 8B10-b
B4: hu8B10-b variant, VH N57S (antibody, V domains shown)
VH: B1 VH with N57S
VL: B1 VL
notes: also called VH: 8B10-b N57S / VL: 8B10-b
B5: hu8B10-b variant, VL D56E (antibody, V domains shown)
VH: B1 VH
VL: B1 VL with D56E
notes: also called VH: 8B10-b / VL: 8B10-b D56E
B6: hu8B10-b variant, VH N30S (antibody, V domains shown)
VH: B1 VH with N30S
VL: B1 VL
notes: also called VH: 8B10-b N30S / VL: 8B10-b
B7: hu8B10-b variant, VL N32S (antibody, V domains shown)
VH: B1 VH
VL: B1 VL with N32S
notes: also called VH: 8B10-b / VL: 8B10-b N32S
B8: antibody with hu8B10-b VH and hu8B10 VL N31T (antibody, V domains shown)
VH: B1 VH
VL: B1 VL with R24L, Q27E, Y71F
notes: also called VH: hu8B10-b / VL: hu8B10 N31T
B9: antibody with hu8B10 VH and hu8B10 VL N31T (antibody, V domains shown)
VH: B1 VH with D46E, L47W, V100R
VL: B1 VL with R24L, Q27E, Y71F
notes: also called VH: hu8B10 / VL: hu8B10 N31T
B10: hu8B10-b variant, VH N52S (antibody, V domains shown)
VH: B1 VH with N52S
VL: B1 VL
notes: also called VH: 8B10-b N52S / VL: 8B10-b
B11: hu8B10-b variant, VH N30D (antibody, V domains shown)
VH: B1 VH with N30D
VL: B1 VL
notes: also called VH: 8B10-b N30D / VL: 8B10-b
B12: humanized anti-human IL-23R antibody hu8B10-c (antibody, V domains shown)
VH: B1 VH with N30S
VL: B1 VL with D56S
notes: 8B10-b with VL D56S and VH N30S
B13: hu8B10-b variant, VL D56S (antibody, V domains shown)
VH: B1 VH
VL: B1 VL with D56S
notes: also called VH: 8B10-b / VL: 8B10-b D56S
B14: chimeric 8B10 Fab, VL N31del (Fab, V domains shown)
VH: EVKLVESGGGLEQPKGSLKLSCTVSGFDFNSYGMSWVRQAPGKGLDLVADINSKSYNYATYYADSVKDRFTISRDDSQSMVYLEMDNLKTEDTALYYCTVHHSDYFEYWGQGVMVTVSS
VL: DIQMTQSPASLSASLGETVSIECLASEDIYNLAWYQQKPGKSPQLLIYHASSLQDGVPSRFSGSGSGTQYSLKINSLESEDAATYFCLQDSEYPPTFGGGTKLELK
notes: Rat V domains with human CH1 and CL; E. coli periplasmic extract
B15: chimeric 8B10 Fab, VL Y94A (Fab, V domains shown)
VH: B14 VH
VL: DIQMTQSPASLSASLGETVSIECLASEDIYNNLAWYQQKPGKSPQLLIYHASSLQDGVPSRFSGSGSGTQYSLKINSLESEDAATYFCLQDSEAPPTFGGGTKLELKR
notes: as for B14
B16: chimeric 8B10 Fab, VH Y32A (Fab, V domains shown)
VH: B14 VH with Y32A
VL: B15 VL with A94Y
notes: as for B14
B17: chimeric 8B10 Fab, VL Y49A (Fab, V domains shown)
VH: B14 VH
VL: B15 VL with Y49A, A94Y
notes: as for B14
B18: chimeric 8B10 Fab, VH Y58G (Fab, V domains shown)
VH: B14 VH with Y58G
VL: B15 VL with A94Y
notes: as for B14
B19: chimeric 8B10 Fab, VL N32A (Fab, V domains shown)
VH: B14 VH
VL: B15 VL with N32A, A94Y
notes: as for B14
B20: chimeric 8B10 Fab, VL S92A (Fab, V domains shown)
VH: B14 VH
VL: B15 VL with S92A, A94Y
notes: as for B14
B21: chimeric 8B10 Fab, VL D28A (Fab, V domains shown)
VH: B14 VH
VL: B15 VL with D28A, A94Y
notes: as for B14
B22: chimeric 8B10 Fab, VL S53A (Fab, V domains shown)
VH: B14 VH
VL: B15 VL with S53A, A94Y
notes: Rat V domains with human CH1 and CL; E. coli periplasmic extract; also called S53A (light chain variable domain)
B23: chimeric 8B10 Fab, VL E27A (Fab, V domains shown)
VH: B14 VH
VL: B15 VL with E27A, A94Y
notes: as for B14
B24: chimeric 8B10 Fab, VL D91A (Fab, V domains shown)
VH: B14 VH
VL: B15 VL with D91A, A94Y
notes: as for B14
B25: chimeric 8B10 Fab, VL H50A (Fab, V domains shown)
VH: B14 VH
VL: B15 VL with H50A, A94Y
notes: as for B14
B26: chimeric 8B10 Fab, VH Y61A (Fab, V domains shown)
VH: B14 VH with Y61A
VL: B15 VL with A94Y
notes: as for B14
B27: chimeric 8B10 Fab, VL Y30A (Fab, V domains shown)
VH: B14 VH
VL: B15 VL with Y30A, A94Y
notes: as for B14
B28: chimeric 8B10 Fab, VL N31T (Fab, V domains shown)
VH: B14 VH
VL: B15 VL with N31T, A94Y
notes: as for B14
B29: chimeric 8B10 Fab, VL N31A (Fab, V domains shown)
VH: B14 VH
VL: B15 VL with N31A, A94Y
notes: as for B14
B30: chimeric 8B10 Fab, VH Y105A (Fab, V domains shown)
VH: B14 VH with Y105A
VL: B15 VL with A94Y
notes: as for B14
B31: chimeric 8B10 Fab, VL E93A (Fab, V domains shown)
VH: B14 VH
VL: B15 VL with E93A, A94Y
notes: as for B14

Biological target: T1, human IL-23R
Experiment: BIAcore SPR, antibody immobilised
Experimental: BIAcore® label-free interaction analysis system determinations are performed essentially as described at Example 4 of U.S. Patent Application Publication No. 2007/0048315, which is hereby incorporated by reference. Briefly, ligands (anti-IL-23R mAbs) are immobilized on a BIAcore® label-free interaction analysis system CM5 sensor chip using standard amine-coupling procedure. Kinetic constants for the various interactions are determined using BIAevaluation software 3.1. The Kd is determined using the calculated dissociation and association rate constants.
Several sequence variants intended to increase the chemical stability of hu8B10-b were produced to evaluate their effects on binding affinity. Kd values are provided at Table 3. Binding to human IL-23R was determined using the BIAcore® label-free interaction analysis system (surface plasmon resonance), essentially as described in Example 4 (supra). Chimeric forms, designated as “chim,” refers to rat variable domains linked to human IgG1 heavy chain and human kappa light chain constant domains, e.g., as presented at SEQ ID NOs: 16 and 17, respectively, or as at SEQ ID NOs: 22 and 23, respectively. Sequences for heavy and light chain variable domains are provided at FIGS. 1 and 2, and in the Sequence Listing (as described at Table 4). Antibodies incorporate the sequence changes recited in the table (“Variant(s)”) for the respective heavy and light chains. Data arc presented as mean±standard deviation for multiple determinations, and without error estimates for single determinations.

Kd [nM] | binding result | Binder
0.154 | – | B1
– | no binding | B2
0.22 | – | B3
0.382 | – | B4
0.179 | – | B5
0.168 | – | B6
19.2 | – | B7
5.38 | – | B8
– | no binding | B9
0.444 | – | B10
0.114 | – | B11
0.18 | – | B12
0.187 | – | B13

Biological target: T2, biotinylated huIL-23R-IgG
Experiment: ECL binding assay, Binding (% of w.t.)
From the text: (§1) The N31T change was introduced as a result of affinity maturation experiments, as follows. An E. coli expression vector for expression into the periplasmic space was constructed encoding a chimeric Fab fragment of rat antibody 8B10 comprising rat variable domains, a human constant light chain domain (CL) and a human constant heavy chain domain CH1. Mutations were introduced using a QuikChange® site directed mutagenesis kit (Stratagene Inc., LaJolla, Calif., USA). Primers were designed to replace selected positions with either alanine, or by all 20 amino acids, using the NNK codon approach (N includes an equimolar mix of A/G/C/T and K includes only G/T). To reduce background, alanine mutants at each position were used as the template for the randomization step. Unpurified periplasmic extracts were then tested for human IL-23R binding activity using an electrochemiluminescence assay with biotinylated huIL-23R-IgG and goat anti-huFab-Ori-Tag for detection. The area under the curve was used to compare the binding activity of sequence variants to the original parental 8B10 Fab. Data were fitted using GraphPad Prism® 3.0 software (Graphpad Software inc., San Diego, Calif. USA).

binding result | Binder
no binding | B14
no binding | B15

Biological target: T2, biotinylated huIL-23R-IgG
Experiment: ECL binding assay, periplasmic Fab extracts, biotinylated huIL-23R-IgG; AUC vs parental 8B10 Fab
From the text: as §1

Binding (% of w.t.) | Binder
76.3 % of w.t. | B16
62.4 % of w.t. | B17
53 % of w.t. | B18
13.4 % of w.t. | B19
68.4 % of w.t. | B20
93.1 % of w.t. | B21
85 % of w.t. | B22
96.2 % of w.t. | B23
5.6 % of w.t. | B24
62.2 % of w.t. | B25
41.7 % of w.t. | B26
3.2 % of w.t. | B27
129 % of w.t. | B28
117 % of w.t. | B29
18.3 % of w.t. | B30
62.8 % of w.t. | B31
